# Results as given in IntAct's records for PubMed 17409324.
# B1: Vang-like protein 1 (Homo sapiens), Q8TAA9 (parent)
# chain: MDTESTYSGYSYYSSHSKKSHRQGERTRERHKSPRNKDGRGSEKSVTIQPPTGEPLLGNDSTRTEEVQDDNWGETTTAITGTSEHSISQEDIARISKDMEDSVGLDCKRYLGLTVASFLGLLVFLTPIAFILLPPILWRDELEPCGTICEGLFISMAFKLLILLIGTWALFFRKRRADMPRVFVFRALLLVLIFLFVVSYWLFYGVRILDSRDRNYQGIVQYAVSLVDALLFIHYLAIVLLELRQLQPMFTLQVVRSTDGESRFYSLGHLSIQRAALVVLENYYKDFTIYNPNLLTASKFRAAKHMAGLKVYNVDGPSNNATGQSRAMIAAAARRRDSSHNELYYEEAEHERRVKKRKARLVVAVEEAFIHIQRLQAEEQQKAPGEVMDPREAAQAIFPSMARALQKYLRITRQQNYHSMESILQHLAFCITNGMTPKAFLERYLSAGPTLQYDKDRWLSTQWRLVSDEAVTNGLRDGIVFVLKCLDFSLVVNVKKIPFIILSEEFIDPKSHKFVLRLQSETSV
# partner: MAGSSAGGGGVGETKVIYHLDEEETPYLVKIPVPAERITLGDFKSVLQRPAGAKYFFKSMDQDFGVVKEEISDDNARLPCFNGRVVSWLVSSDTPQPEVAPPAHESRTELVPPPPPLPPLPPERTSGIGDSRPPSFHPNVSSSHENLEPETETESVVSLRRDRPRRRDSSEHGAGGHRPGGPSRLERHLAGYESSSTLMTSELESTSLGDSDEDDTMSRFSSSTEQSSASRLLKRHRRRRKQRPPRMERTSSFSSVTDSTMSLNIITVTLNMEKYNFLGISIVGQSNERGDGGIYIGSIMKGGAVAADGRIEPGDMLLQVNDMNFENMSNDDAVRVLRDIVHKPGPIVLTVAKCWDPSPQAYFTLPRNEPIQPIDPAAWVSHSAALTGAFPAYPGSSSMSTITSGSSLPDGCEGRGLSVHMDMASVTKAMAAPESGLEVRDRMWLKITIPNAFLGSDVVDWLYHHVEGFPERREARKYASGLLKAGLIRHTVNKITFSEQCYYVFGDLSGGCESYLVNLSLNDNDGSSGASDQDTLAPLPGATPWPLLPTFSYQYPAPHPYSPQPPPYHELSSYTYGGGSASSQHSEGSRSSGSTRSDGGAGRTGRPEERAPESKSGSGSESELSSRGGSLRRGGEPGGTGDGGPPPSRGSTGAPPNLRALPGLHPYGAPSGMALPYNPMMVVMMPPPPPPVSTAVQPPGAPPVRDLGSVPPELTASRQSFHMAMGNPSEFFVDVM
# B2: Vang-like protein 1 (Homo sapiens), Q8TAA9 (parent)
# chain: B1 chain
# partner: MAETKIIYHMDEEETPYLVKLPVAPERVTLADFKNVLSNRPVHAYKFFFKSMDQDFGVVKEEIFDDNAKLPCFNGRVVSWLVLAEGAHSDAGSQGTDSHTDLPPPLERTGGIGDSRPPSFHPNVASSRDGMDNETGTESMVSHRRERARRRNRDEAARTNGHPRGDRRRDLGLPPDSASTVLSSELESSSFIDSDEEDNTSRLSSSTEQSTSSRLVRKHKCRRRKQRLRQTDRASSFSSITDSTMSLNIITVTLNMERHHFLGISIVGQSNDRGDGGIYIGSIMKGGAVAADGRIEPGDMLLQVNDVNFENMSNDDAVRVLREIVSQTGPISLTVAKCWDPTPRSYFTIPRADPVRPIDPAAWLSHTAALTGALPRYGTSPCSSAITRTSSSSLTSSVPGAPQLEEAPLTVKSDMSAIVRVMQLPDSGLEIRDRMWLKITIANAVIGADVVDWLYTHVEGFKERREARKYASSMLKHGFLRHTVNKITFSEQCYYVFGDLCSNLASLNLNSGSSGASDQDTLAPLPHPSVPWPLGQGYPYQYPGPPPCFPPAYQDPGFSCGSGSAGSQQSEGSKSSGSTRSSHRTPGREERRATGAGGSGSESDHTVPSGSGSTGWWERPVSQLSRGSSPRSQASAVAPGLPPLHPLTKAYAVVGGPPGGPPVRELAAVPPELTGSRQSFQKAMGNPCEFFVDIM
# B3: Vang-like protein 1 (Homo sapiens), Q8TAA9 (parent)
# chain: B1 chain
# partner: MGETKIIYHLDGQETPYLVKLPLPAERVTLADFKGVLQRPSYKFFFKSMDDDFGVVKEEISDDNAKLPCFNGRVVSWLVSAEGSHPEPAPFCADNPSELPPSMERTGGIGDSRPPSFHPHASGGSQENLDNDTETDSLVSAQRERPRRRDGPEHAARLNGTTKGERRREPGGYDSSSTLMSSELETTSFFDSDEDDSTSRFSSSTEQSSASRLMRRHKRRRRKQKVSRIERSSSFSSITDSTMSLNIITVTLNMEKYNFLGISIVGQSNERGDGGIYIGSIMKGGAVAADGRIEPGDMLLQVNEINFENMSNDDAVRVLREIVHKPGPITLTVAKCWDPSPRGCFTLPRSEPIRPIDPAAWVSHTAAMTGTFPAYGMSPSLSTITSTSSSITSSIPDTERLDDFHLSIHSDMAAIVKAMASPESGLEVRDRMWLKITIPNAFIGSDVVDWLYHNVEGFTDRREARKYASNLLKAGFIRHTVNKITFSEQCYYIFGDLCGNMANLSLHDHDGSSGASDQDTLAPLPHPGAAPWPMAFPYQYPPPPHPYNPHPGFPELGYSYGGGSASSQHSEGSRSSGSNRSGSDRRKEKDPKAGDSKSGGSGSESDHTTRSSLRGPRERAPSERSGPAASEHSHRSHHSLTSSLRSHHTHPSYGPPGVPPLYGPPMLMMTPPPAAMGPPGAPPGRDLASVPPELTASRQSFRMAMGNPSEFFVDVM
# Variants of: B1
# Settings: with dvl2_mouse Dvl2, Q60838
row,Variant,effect of a mutation on the interaction
1,M328T,with no effect
2,S467N,decreasing interaction strength

# Further lines, results first:
row,effect of a mutation on the interaction,Variant
1,disrupting interaction strength,D259E
2,disrupting interaction strength,V239I
3,with no effect,R274Q

# Variants of: B2
# Settings: with dvl1_mouse Dvl1, P51141
row,effect of a mutation on the interaction,Variant
1,disrupting interaction strength,V239I
2,with no effect,R274Q
3,with no effect,M328T
4,disrupting interaction strength,S467N
5,disrupting interaction strength,D259E

# Variants of: B3
# Settings: with dvl3_mouse Dvl3, Q61062
row,Variant,effect of a mutation on the interaction
1,S467N,with no effect
2,V239I,disrupting interaction strength
3,M328T,with no effect

# Second part, the variant after the results:
row,effect of a mutation on the interaction,Variant
1,disrupting interaction strength,D259E
2,with no effect,R274Q
